Data: the Human Domainome abundance scans (Beltran et al. 2025)

B1: Far upstream element-binding protein 1, residues 98 to 169; numbered along this chain, Q96AE4 (parent)
chain: RSVMTEEYKVPDGMVGFIIGRGGEQISRIQQESGCKIQIAPDSGGLPERSCMLTGTPESVQSAKRLLDQIVE
B2: Gamma-crystallin C, residues 91 to 170; numbered along this chain, P07315 (parent)
chain: RLYEREDHKGLMMELSEDCPSIQDRFHLSEIRSLHVLEGCWVLYELPNYRGRQYLLRPQEYRRCQDWGAMDAKAGSLRRV

Variants of: B1
Assay: abundance fitness (aPCA) (normalised: wild type 0, dead -1); higher = more abundant; growth selection in yeast, the domain comes from the species named
Details: Homo sapiens

Abundance fitness of substitutions, site by site:
D68: T -0.034, F -0.052, R -0.019, A 0.004, V -0.078, K -0.001, G 0.014, P -0.544, Q -0.058, S -0.012, I -0.093, N -0.025, L -0.064, W -0.042, C -0.065, M -0.011, H -0.045, E -0.023
V71: C -0.044, T -0.083, D -0.114, F -0.065, W -0.094, P -0.047, R -0.046, K -0.031, A -0.036, Q -0.008, Y -0.183, E -0.089, I -0.077, G -0.061, N -0.087, M -0.088, H -0.128, S -0.074
L66: V -0.11, W -0.123, Y -0.079, S -0.029
E72: G 0.024, V 0.051, H -0.007, K -0.129, P -0.065, A 0.04, D -0.048, Y -0.01, M -0.01, C -0.034, W -0.008, F -0.111, T 0.05, S 0.012, N -0.11
I70: Y -0.003, V 0.001, C 0.004, E 0.001, N -0.142, S -0.046, K -0.03, F 0.024, P -0.259, W -0.02, G -0.11, Q -0.019, H -0.062, R -0.013, A 0.062
Q69: N -0.02, T -0.029, A -0.006, W -0.274, E 0.023, C -0.079, R -0.009, P -0.097, Y -0.162, K -0.004, S -0.018, F -0.097, H -0.041, I -0.054, L -0.065, G -0.002, V -0.014
L67: R -0.777, N -0.501, M -0.107, F -0.121, Q -0.575, K -0.653, I 0.008, G -0.583, W -0.94, E -0.54, P -0.484, T -0.534, D -0.412, V -0.145, H -0.592, Y -0.815, S -0.648, C -0.161

Variants of: B2
Assay: as above
Details: Homo sapiens

Abundance fitness: each site, then its substitutions
L11: M -0.017, C -0.08, A -0.13, N 0.018, Q -0.127, V -0.059, P -0.004, W -0.289, T -0.049, E 0, I -0.116, D -0.248, G -0.092, R -0.031, S -0.089, F -0.017, H -0.144
G10: N -0.655, Q -0.775, H -0.818, R -0.931, D -0.731, A -0.976, S -0.923, Y -0.623, V -0.821, C -0.905, P -0.951, L -1.06, F -0.717, T -1.01
M12: C -0.288, D -0.863, F -0.342, W -0.17, V -0.096, S -0.172, K -0.464, P -0.038, R -0.32, H -0.483, Q -0.636, T -0.464, L -0.238, Y -0.063, G -0.286, I -0.242, N -0.11, A -0.127
E6: T -0.362, L -0.892, G -0.803, D -0.538, N -0.416, W -0.718, Q -0.445, R -0.642, V -0.53, M -0.698, Y -0.64, A -0.284
H8: Y 0.111
K9: P -0.728, S -0.241, D -0.254, I -0.68, T -0.156, C -0.103, Q 0.117, W -0.909, M 0.212, A -0.129, R -0.132, E 0.017, H -0.174, Y -0.467, V -0.402, G -0.171, F -0.559, N -0.085
L15: M -0.431, N -0.6, D -0.736, A -0.477, V 0.037, C -0.09, F -0.134, T -0.389, S -0.832, G -1.03, E -0.89
R5: D -0.175, G -0.105, A -0.309, P -0.788, S -0.144, L -0.029, H 0.185, M 0.047, W -0.203, V -0.429, T -0.747
S16: F -0.123, D -0.029, C -0.096, P -0.859, Y -0.094, I -0.102, K -0.135, E 0.118, N -0.025, R -0.082, T -0.129, Q -0.132, L -0.276, G -0.082, M -0.365, A -0.043
M13: S -0.441, E -0.327, P -1, I -0.148, Q -0.22, W -0.018, F -0.253, R -0.261, D -0.706, A -0.085, C -0.118, H -0.283, Y -0.112, N -0.24, G -0.07, L -0.078, V -0.002
E17: N -0.477, F -0.516, Q -0.089, V -0.253, L -0.544, C -0.168, T -0.231, I -0.533, G -0.132, P -0.91, K -0.416, D -0.035, W -0.187, H -0.564, R -0.422, A -0.18, S -0.155
D7: E -0.03, H -0.221, Y -0.098, G -0.186, M -0.241, V -0.936, L -0.554, P -0.846, K -0.578, F -0.203, S -0.277, C -0.237, R -0.505, Q -0.273, T -0.995, A -0.248
R1: K -0.072, V -0.381, W -0.404, T -0.314, I 0.241, G -0.879, E -0.756, D -0.857, S -0.936
L2: V -0.714, T -0.622, Y -0.936, A -0.494, P -1.13, C -0.777, G -0.922, M -0.346, W -0.847
E4: M -0.019, R -0.582, W -0.78, C -0.291, H -0.571, Y -0.7, G -0.348, K -0.375, A -0.129, P -0.341, F -0.347, S -0.027, L -0.339, D -0.153, I -0.746, T -0.123, N -0.261
E14: Y -0.04, A -0.15, D -0.485, R -0.397, C -0.565, T -0.169, S -0.25, K -0.095, Q -0.227, V -0.227, I -0.265, P -0.269, G -0.524
Y3: F -0.238, R -0.846, L -1.04, G -0.955, W -0.324, V -0.949, H -0.598, K -0.948, N -0.633, P -0.807, A -0.771, C -0.64, Q -0.88
